# Experiment: soluble on expression in E. coli; label from the status in PepcDB or PDB records
row,Sequence,soluble on expression in E. coli
1,SYYHHHHHHLESTSLYKKAGLMSTPLQGIKVLDFTGVQSGPSCTQMLAWFGADVIKIERPGVGDVTRHQLRDIPDIDALYFTMLNSNKRSIELNTKTAEGKEVMEKLIREADILVENFHPGAIDHMGFTWEHIQEINPRLIFGSIKGFDECSPYVNVKAYENVAQAAGGAASTTGFWDGPPLVSAAALGDSNTGMHLLIGLLAALLHREKTGRGQRVTMSMQDAVLNLCRVKLRDQQRLDKLGYLEEYPQYPNGTFGDAVPRGGNAGGGGQPGWILKCKGWETDPNAYIYFTIQEQNWENTCKAIGKPEWITDPAYSTAHARQPHIFDIFAEIEKYTVTIDKHEAVAYLTQFDIPCAPVLSMKEISLDPSLRQSGSVVEVEQPLRGKYLTVGCPMKFSAFTPDIKAAPLLGEHTAAVLQELGYSDDEIAAMKQNHAI,soluble
2,TDSTGIDLHEFLVNTLKKNPRDRMMLLKLEQEILEFINDNNNQFKKFPQMTSYHRMLLHRVAAYFGMDHNVDQTGKAVIINKTSNTRIPEQRFSEHIKDEKNTEFQQRFIL,soluble
3,TEQPCVEKAPAYQRFHALAQPGLPGLVLPYKYQVLVEMFRSMDTIVSMLHNRSETVTFAKVKQGVQEMMRKRFEERNVGQIKTVYPTSYRFRQECNVPTFKDSIKRSDYQLTIEPLLGQEAGGATQLTATCLLQRRQVFRQNLVERVKEQHKVFLASLNPPMAVPDDQLTRWHPRFNVDEVPDIEPAELPQPPVTEK,soluble
4,TETSPDKWLIDGDTPLDEVERAIGYELPEGDYETISGLLFDHANALLKTGDVIEIPLDFEPEDYLNNTSPTQRILRITVLEVERNVPVKLALALLEDHPDNHPAPKENR,soluble
5,THALEPSKPLAHDEKPITIEVVSMDWKWFFIYPEQGIATVNEIAFPANTPVYFKVTSNSVMHSFFIPRLGSQIYAMAGMQTRLHLIANEPGTYDGICAEICGPGHSGMKFKAIATPDRAAFDQWVAKAKQSPNTMSDMAAFEKLAAPSEYNQVEYFSNVKPDLFADVINKFMAHGKSMDMTQPEGEHSAHEGMEGMDMSHAESAH,soluble
6,TKDFAFDLNVNMAHNVSKVKELAPEENVNYMFFNGDGNFPVKVGTRAGHKLGEIYATSLYKRNENGDIIVNENGLPMTVTNESEYVNKPIGNIQPKLTMSVSPTFTYKGITLSALFDMKFGGDIFSYSEMLATGNGLAKRTLNRGEENNYMMVFPGVTESGEVNTKQVSASEYYGALQAEDFIYDASFIKLKELSIGYSFPSSMLKKTPVNSLNVSFVARNLCYLMKHTPGTSPEGGYDTTMFSQAIDYASLPFTRTFGISINLGF,not soluble
7,TLYDKVWDQHKVTTLPNGQDQLFVGLHLIHEVTSPQAFGMIKERGLEVARPDLTHATVDHIVPTANQDRPYSDDAAETMMAELEENVRDAGIQFSDPTTGDQGIVHVIGPEQGITQPGKTIVCGDSHTSTHGAFGALAFGIGTSQIRDVLATQTIAMEKQKV,not soluble
8,TPDADKKGAVFALDQEPEAQAAVVALDPLSGAVKAMVGGYDFRKSQFNRALQAKRNPGSAFKPLIYAAALDKGITPATIFDDSPVEYESGKEKAWKPKNYDNIYRGNVTMREALTNSINVVSVKILEQIGVDYAIEYAKKLGITSPLSANLTLALGSSSLTPLELTSAYAVFASGGYRTTPYFVTRVEDAEGRTLEETAPPVIPRFSVMTSAESSPLEASPAPPATAGDSASTAVPVIAPETAYIMTNLMESVVQSGTGQRARAVGRPVAGKTGTTNDMKDAWFVGYIPQLVAGVWVGYDQERSLGAGGSGGQAAAPIWTEFMRRAVAGIPSRDF,not soluble
9,TPNKEDYLKCLYELGTRHNKITNKEIAQLMQVSPPAVTEMMKKLLAEELLIKDKKAGYLLTDLGLKLVSDLYRKHRLIEVFLVHHLGYTTEEIHEEAEVLEHTVSDHFVERLDQLLDYPKACPHGGTIPAKGELLVEKHKLTLEEAKEKGDYILARVHDNFDLLTYLERNGLQVGKTIRFLGYDDFSHLYSLEVDGQEIQLAQPIAQQIYVEKI,soluble
10,TPSRVEAFDNSNIHGTDPVSAMVTFLDGKPSKNDYRKYKIKTVEGPDDYATMREVIRRRYWRVLKEGLPMPDLILIDGGKGQIDSAKDVLTNELGLDIPVAGLAKDDKHRTSQLLFGDPLEIVPLERNSQEFYLLQRMQDEVHRFAITFHRQLRSKTGFQSILDGIPG,not soluble
11,TPVLIRQLANKDRAREFSFLKDLGKDIAHFRFLGSFSTHAKVHDQLMDIDLHNRMAYIALAYDNDELTEIGVARYGAYEGDAHCEFAIAVSEKWQRRGVATALLKRLMETATKEGFSKISSMDASKNLAMDGLATSMGFTCRVDEKHGPRIFHEYVLVQ,not soluble
12,TQHIESHTHVVSLEEIPVERNLAQLTGWTEGAPVWRLVRQREIEGEVDILDIDYLIKEIVPELPKHRAEDSIFDYLENDLGLAISYAQKEITVEPLTEMDKQLIGEVEGNHVVVVRSIMNLEDTRCFGYTESRHRLNKFKFVEFARRRKL,soluble
13,TQLHATRQAIVEAGQAIKMDKNGVQKLPVLNIYNEQQKWQKHQLMVENLPLNQVLQELDRNYKGKIIFNDAALQHVRVNAVLPLDQTTESLKLLATVFPDLKIKQIMPFVVMVSLK,not soluble
14,TQPPQPDAQSPYSKRYDPTKDYPLSSPAGGMNNFSDVEPRGRLDEKAATDRADALAKNAQRNIEQKGIDSPEQYGRNYKQGTPFGERVKNLGEDIGSSANELGEGVVKGTQRGIENLKGNTQNAAEDATKNVQRGAEDAGRNVRRTADDAGNAVKRAVD,not soluble
15,TSTDAAGGDSYRVGINQLVQHPALDAATTGFKEAFEEAGVDVTFDEQNANGEQGTALTISQQFASDNLDLVLAVATPAAQATAQNITDIPVLFTAVTDAVSAELVDSNEAPGGNVTGTSDIAPIEQQLELLQQLVPDAKSIGIVYASGEVNSQVQVDEVTKAAEPLGLSVNTQTVTTVNEIQQAVEALGDVDVIYVPTDNMVVSGISSLVQVAEQKQIPVIGAESGTVEGGALATLGIDYTELGRQTGEMALRILQDGEDPATMPVETATEFTYVINEDAAERQGVEIPQEILDKAERV,not soluble
16,TVGCVAVDSHGNLASATSTGGLVNKMVGRIGDTPLIGAGTYANELCAVSATGKGEEIIRATVARDVAALMEFKGLSLKEAADFVIHERTPKGTVGLIAVSAAGEIAMPFNTTGMFRACATEDGYSEIAIWPTT,soluble
17,TVRVRLAPSPTGNLHIGTARTAVFNWLYARHRGGKFILRIEDTDRERSRPEYTENILEGLQWLGLTWDEGPYFQSDRLDLYRQAIQTLLDKGLAYYCYCTPEELEALRAEQKAKGQAPRYDNRHRHLTPEEQAAFEAAGRTPVIRFKIEDDRQIEWQDLVRGRVSWQGADLGGDMVIARAAPRGEIGYPLYNLVVVVDDIAMGITDVIRGEDHIGNTPKQILLYEALGATPPNFAHTPLILNSTGQKLSKRDGVTSISDFRAMGYLAPALANYMTLLGWSPPEGVGELFTLDLAAKHFSFERINKAGARFDWDKLNWLNRQYIQQLEPEEFLAELIPLWQGAGYAFDEERDRPWLFDLAQLLQPGLNTLREAIDQGAVFFIPSVTFDSEAMAQLGQPQSATILAYLLEHLPAEPALTVAMGQQLIQQAAKAAGVKKGATMRTLRAALTGAVHGPDLMAAWQILHQRGWDEPRLAAALKQAQTTSLEHHHHHH,soluble
18,VADEYKWALASIYETDDEWEAAFEDVQAELDALNDYEGRLTEDGETLLAALELRDAVYRDAKTVSAYASMRSDEDTRDQEYQALQARGASLMTDVSSATSFFDPELQACTREQLQSMIEETPELAAYEHYFDDVLRMKPHTRSAEVEGLLSELGEVFGAPSDAYNMLTDADLEFPTVEDPAGDAVEISQSN,soluble
19,VADRYAVYWNSSNPRFQRGDYHIDVCINDYLDVFCPHYEDSVPEDKTERYVLYMVNFDGYSACDHTSKGFKRWECNRPHSPNGPLKFSEKFQLFTPFSLGFEFRPGREYFYISSAIPDNGRRSCLKLKVFVRPTNSCM,soluble
20,VAKRLDLTDVNIYYGSFHAVADVSLAILPRSVTAFIGPSGCGKTTVLRTLNRMHEVIPGARVEGAVLLDDQDIYAPGIDPVGVRRAIGMVFQRPNPFPAMSIRNNVVAGLKLQGVRNRKVLDDTAESSLRGANLWDEVKDRLDKPGGGLSGGQQQRLCIARAIAVQPDVLLMDEPCSSLDPISTMAIEDLISELKQQYTIVIVTHNMQQAARVSDQTAFFNLEAVGKPGRLVEIASTEKIFSNPNQKATEDYISGRFG,not soluble

# Source: the DeepSol protein solubility set
